Experimental data as given in patent publication US20230355708A1 (published 2023).
Read-outs that look alike come from different tables or passages of the source.

Key:
Yu2 gp120 [1] = assay: SPR
Yu2 gp120 [2] = assay: SPR; remark: listed apart in the source

B1: CVN (other)
chain: LGKFSQTCYNSAIQGSVLTSTCERTNGGYNTSSIDLNSVIENVDGSLKWQPSNFIETCRNTQLAGSSELAAECKTRAQQFVSTKINLDDHIANIDGTLKYE
**Q.** For B1, which Kd (Yu2 gp120 [1]) is on record?
**A.** 0.622 nM

**Q.** And the Kd (Yu2 gp120 [2])?
**A.** 0.622 nM
